In this data set the target is thrombin (bovine, UniProt P00735;P00735 318-366;367-625). In words: graphene oxide FET resistance change; TBA adsorbed on graphene oxide; thrombin detected down to 250 pM within 5 min (detection limit, not Kd); Assay buffer and temperature not given in the material (reagents list PBS pH 7.4 and Trizma base); sections 3.2.1-3.2.3 have no text. GOx, trypsin, lysozyme, ficin and goat anti-mouse IgG were purchased, but no result for them is in the material. The settings on record: protein: commercial; copies: 1;1.

B1: TBA (ssDNA)
DNA: GGTTGGTGTGGTTGG
Consider B1, for which the binding result is “binds”.
